This is an account of results in patent US20140157444A1.

Experiment [1] has as its target Myc-tagged estrogen receptor beta (UniProt O08537). The experiment can be described thus: cell-based or functional assay.
A further experiment deals with GFP-ERα (human) (UniProt P03372). The experiment can be described thus: cell-based or functional assay.
GFP-ERα (human), sequence (P03372 whole entry): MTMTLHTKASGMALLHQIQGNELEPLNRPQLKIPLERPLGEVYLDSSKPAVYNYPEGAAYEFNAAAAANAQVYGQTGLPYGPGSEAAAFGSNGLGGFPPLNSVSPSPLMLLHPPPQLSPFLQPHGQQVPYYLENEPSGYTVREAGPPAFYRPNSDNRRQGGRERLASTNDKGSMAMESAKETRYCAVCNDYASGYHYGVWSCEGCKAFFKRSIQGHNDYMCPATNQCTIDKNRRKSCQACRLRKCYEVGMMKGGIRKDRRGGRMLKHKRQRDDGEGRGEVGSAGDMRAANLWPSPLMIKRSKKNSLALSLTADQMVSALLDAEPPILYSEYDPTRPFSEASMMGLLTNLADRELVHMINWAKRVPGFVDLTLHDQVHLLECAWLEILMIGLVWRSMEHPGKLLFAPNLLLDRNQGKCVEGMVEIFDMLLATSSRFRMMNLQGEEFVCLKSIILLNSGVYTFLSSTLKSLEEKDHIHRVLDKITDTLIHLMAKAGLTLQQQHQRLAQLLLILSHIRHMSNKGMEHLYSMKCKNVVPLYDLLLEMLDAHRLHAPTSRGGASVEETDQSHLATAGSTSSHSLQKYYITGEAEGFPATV

Myc-tagged estrogen receptor beta, sequence (O08537 whole entry): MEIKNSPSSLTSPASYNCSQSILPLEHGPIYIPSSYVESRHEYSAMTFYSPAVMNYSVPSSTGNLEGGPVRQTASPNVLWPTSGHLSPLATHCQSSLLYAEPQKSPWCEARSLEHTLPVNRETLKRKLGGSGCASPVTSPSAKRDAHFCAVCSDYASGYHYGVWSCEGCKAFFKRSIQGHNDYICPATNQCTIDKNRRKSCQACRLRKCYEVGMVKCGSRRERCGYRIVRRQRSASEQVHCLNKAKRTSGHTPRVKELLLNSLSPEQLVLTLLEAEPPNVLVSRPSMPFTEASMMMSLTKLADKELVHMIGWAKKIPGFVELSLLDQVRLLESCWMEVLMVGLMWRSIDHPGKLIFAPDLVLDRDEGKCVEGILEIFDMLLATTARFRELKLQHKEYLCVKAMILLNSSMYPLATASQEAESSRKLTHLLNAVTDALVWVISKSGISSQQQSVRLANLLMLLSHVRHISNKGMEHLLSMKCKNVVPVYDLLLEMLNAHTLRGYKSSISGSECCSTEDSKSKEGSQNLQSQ

In the case of “WDR13 (overexpressed in the luciferase assay, construct not stated) (from UniProt Q91V09 1-485)”, the ERE-driven luciferase activity (ERE-TATA-LUC reporter in HEK 293 cells) (fold reduction) (in experiment [1]; in the experiment with GFP-ERα (human)) was 2 throughout.
